Test results taken from patent US20240254182A1 (PROVINCIAL HEALTH SERVICES AUTHORITY, published 2024).

How the values were obtained:
[1] = target: T1, WT G-CSFR(Ig-CRH), purified, tag cleaved (human, UniProt Q99062 26-331); test: SPR (Biacore T200), WT receptor amine-coupled, cytokine injected
T1 construct: also called G-CSFRWT; wild type G-CSFR(Ig-CRH)
T1 chain: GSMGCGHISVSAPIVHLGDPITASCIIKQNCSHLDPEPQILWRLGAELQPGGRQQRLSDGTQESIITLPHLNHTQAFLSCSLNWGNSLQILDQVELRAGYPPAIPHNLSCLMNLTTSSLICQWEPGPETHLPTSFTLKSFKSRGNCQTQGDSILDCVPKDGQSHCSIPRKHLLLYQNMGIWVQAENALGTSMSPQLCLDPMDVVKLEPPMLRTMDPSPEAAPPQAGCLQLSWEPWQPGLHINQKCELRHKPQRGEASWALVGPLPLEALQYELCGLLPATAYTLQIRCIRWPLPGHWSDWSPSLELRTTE
Description: (§1) The SPR binding assays were carried out on a Biacore T200 instrument (GE Healthcare, Mississauga, ON, Canada) with PBS-T (PBS+0.05% (v/v) Tween 20) running buffer at a temperature of 25° C. CM5 Series S sensor chip, Biacore amine coupling kit (NHS, EDC and 1 M ethanolamine), and 10 mM sodium acetate buffers were all purchased from GE Healthcare. PBS running buffer with 0.05% Tween20 (PBS-T) was purchased from Teknova Inc. (Hollister, CA). Designs were assessed in three different immobilization orientations.
To assess binding affinity of G-CSFE to G-CSFRWT, recombinant G-CSFRWT purified as described in Example 5 was captured as described above in this Example. Using single-cycle kinetics, six concentrations of a two-fold dilution series of each G-CSFE mutant starting at […] with a blank buffer control were sequentially injected as described above. The same sample titration was also performed on a reference cell with no variants captured. The G-CSFRWT surface was regenerated as described above.
(§2) Double-referenced sensorgrams from duplicate or triplicate repeat injections were analyzed using Biacore™ T200 Evaluation Software v3.0 and fit to the 1:1 Langmuir binding model.

[2] = target: T2, design 300 G-CSFR(Ig-CRH)E, tag cleaved (human, UniProt Q99062 26-331); test: SPR, G-CSFRE amine-coupled, G-CSFE injected, single-cycle kinetics
T2 chain: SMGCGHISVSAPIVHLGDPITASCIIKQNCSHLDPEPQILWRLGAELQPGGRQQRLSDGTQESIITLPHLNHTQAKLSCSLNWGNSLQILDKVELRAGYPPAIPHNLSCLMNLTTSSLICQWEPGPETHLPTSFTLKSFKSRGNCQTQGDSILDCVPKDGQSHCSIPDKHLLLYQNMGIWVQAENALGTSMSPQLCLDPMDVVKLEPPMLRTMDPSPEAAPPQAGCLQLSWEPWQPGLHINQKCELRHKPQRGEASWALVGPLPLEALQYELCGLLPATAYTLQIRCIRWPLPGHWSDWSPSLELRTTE
Description: as §1
(§3) To determine binding affinity of G-CSFE to G-CSFRE the G-CSFRE mutant was captured by standard amine coupling as described by the manufacturer (GE LifeSciences). Briefly, immediately after EDC/NHS activation, a 5 μg/mL solution of G-CSFRE in 10 mM NaOAc, pH 5.0, was injected at a flow rate of 5 μL/min until a receptor density of ˜700-900 RU was reached. The remaining active groups were quenched by a 420 s injection of 1 M ethanolamine hydrochloride-NaOH pH 8.5 at 10 μL/min. Using single-cycle kinetics, six concentrations of a two-fold dilution series of the corresponding G-CSFE mutant starting at 200 nM with a blank buffer control were sequentially injected at 25 μL/min for 300 s with a 1800 s dissociation phase, resulting in a set of sensorgrams with a buffer blank reference. The same sample titration was also performed on a reference cell with no variants captured. The chip was regenerated to prepare for the next injection cycle by one pulse of 10 mM glycine/HCl, pH 2.0, for 30 s at 30 μL/min.
as §2

[3] = target: T3, design 303 G-CSFR(Ig-CRH)E, tag cleaved (human, UniProt Q99062 26-331); test: SPR, G-CSFRE amine-coupled, G-CSFE injected; steady state derived affinity constant
T3 chain: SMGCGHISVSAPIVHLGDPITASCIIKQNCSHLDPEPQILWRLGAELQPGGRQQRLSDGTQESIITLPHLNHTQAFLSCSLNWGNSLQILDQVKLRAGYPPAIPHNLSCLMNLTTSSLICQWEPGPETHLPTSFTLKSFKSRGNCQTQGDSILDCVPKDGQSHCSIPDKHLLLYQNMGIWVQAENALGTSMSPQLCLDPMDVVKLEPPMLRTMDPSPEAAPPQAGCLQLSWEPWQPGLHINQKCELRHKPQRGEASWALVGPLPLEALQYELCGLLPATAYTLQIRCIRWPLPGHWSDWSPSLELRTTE
Description: as §3, §2
Kinetic-derived affinity constants (KD) where obtained by fitting the association and dissociation phases of the curves. The KD of WT G-CSF for WT G-CSFR(Ig-CRH) ranged between 1.8-2.5E-9. For the cases in which the kinetic parameters could not be fit an attempt was made to derive a steady state affinity constant. In those cases, the KD fold change was calculated from the steady state derived KD for the WT G-CSF:WT G-CSFR(Ig-CRH) pair and is indicated in Table 7.

[4] = target: T4, combination design 401 G-CSFR(Ig-CRH)E with N-terminal hexahistidine tag (human, UniProt Q99062 25-331); test: co-expression in insect cells, pulldown via the Twin Strep tag on G-CSF, reducing SDS-PAGE; G-CSFR(Ig-CRH) format
T4 chain: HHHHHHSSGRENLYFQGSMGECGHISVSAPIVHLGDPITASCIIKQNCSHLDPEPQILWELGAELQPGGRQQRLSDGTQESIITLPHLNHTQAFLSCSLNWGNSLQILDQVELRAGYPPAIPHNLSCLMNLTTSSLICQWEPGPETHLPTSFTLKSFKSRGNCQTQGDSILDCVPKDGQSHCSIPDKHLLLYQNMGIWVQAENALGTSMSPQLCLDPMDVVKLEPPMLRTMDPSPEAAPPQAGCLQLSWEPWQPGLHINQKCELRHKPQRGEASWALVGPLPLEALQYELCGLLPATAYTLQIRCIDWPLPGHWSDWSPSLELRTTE
Description: (§4) The P2 viral stocks were tested for protein expression in small-scale. P2 virus was used to co-infect G-CSFE mutants with their corresponding G-CSFRE mutant in Trichoplusia ni (Tni) cells in 12-well plates. Separate co-infections for each design mutant were performed using the P2 stocks of G-CSFWT and GCSFR(CRH)WT, as well as for G-CSFE mutants alone. For each reaction, 2 mL of healthy log-phase Tni at 2×10⁶ cells ml⁻¹ was inoculated with 20 μl P2 virus. Plates were incubated at 27° C. for approximately 70 h with shaking at 135 rpm. […] Briefly, to each 1.8 mL reaction supernatant 0.2 mL 10× HEPES Buffered Saline (HBS: 20 mM HEPES pH8, 150 mM NaCl) was added to 1×, 20 μl bed volume (b.v) of purification beads added and reactions incubated for 30 minutes with end-over-end mixing at 24° C. An additional 20 μl b.v of purification beads was added followed by a second 30 minute incubation. Beads were pelleted by centrifugation at 2200 rpm for 3 minutes, supernatant was removed and the beads washed with 1× HBS buffer.
(§5) The co-expression assay with pulldown through the cytokine TST tag was performed as described above in Example 2, with the difference that the receptor constructs contained the Ig and CRH domains (residues 2-308, Table 1) referred to as G-CSFR(Ig-CRH).

[5] = target: T5, combination design 402 G-CSFR(Ig-CRH)E with N-terminal hexahistidine tag (human, UniProt Q99062 25-331); test: as above
T5 chain: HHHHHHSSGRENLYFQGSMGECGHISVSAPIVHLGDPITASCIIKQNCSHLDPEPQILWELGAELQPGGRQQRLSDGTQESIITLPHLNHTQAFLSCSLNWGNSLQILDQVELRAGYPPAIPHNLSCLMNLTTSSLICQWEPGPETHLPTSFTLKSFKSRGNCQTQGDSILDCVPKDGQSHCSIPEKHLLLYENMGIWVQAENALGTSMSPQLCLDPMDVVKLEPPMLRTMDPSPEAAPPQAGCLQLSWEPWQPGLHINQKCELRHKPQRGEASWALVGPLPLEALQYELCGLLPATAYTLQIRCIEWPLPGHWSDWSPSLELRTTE
Description: as §4, §5

[6] = target: T6, site II design 15 G-CSFR(CRH)E with N-terminal hexahistidine tag (human); test: WT G-CSF co-expressed with variant G-CSFR(CRH) in insect cells, pulldown via the Twin Strep tag on G-CSF, reducing SDS-PAGE
T6 construct: also called design #15 G-CSFRE
T6 chain: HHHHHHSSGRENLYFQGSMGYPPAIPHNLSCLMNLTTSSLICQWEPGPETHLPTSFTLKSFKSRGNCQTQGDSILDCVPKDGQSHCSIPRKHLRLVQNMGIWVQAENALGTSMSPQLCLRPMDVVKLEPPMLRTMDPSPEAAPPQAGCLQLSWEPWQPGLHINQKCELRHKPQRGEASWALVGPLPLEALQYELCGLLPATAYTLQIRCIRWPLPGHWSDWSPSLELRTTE
Description: as §4

[7] = target: T7, site II design 30 G-CSFR(CRH)E with N-terminal hexahistidine tag (human, UniProt Q99062 120-331); test: as above
T7 construct: also called design #30 G-CSFRE
T7 chain: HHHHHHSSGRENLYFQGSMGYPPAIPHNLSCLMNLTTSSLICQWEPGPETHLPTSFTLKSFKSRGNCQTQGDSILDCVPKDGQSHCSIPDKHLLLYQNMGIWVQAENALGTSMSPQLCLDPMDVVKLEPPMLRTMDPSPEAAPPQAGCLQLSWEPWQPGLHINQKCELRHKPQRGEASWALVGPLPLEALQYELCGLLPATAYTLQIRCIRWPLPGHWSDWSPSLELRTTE
Description: as §4

[8] = target: T8, site II design 34 G-CSFR(CRH)E with N-terminal hexahistidine tag (human, UniProt Q99062 120-331); test: as above
T8 construct: also called design #34 G-CSFRE
T8 chain: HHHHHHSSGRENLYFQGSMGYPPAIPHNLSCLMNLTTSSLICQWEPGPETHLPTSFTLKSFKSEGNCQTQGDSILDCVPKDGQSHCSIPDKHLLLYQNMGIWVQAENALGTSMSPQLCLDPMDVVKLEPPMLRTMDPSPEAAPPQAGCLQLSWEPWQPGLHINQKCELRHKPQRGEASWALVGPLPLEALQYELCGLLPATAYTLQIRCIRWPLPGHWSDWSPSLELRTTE
Description: as §4

[9] = target: T9, site II design 35 G-CSFR(CRH)E with N-terminal hexahistidine tag (human); test: as above
T9 construct: also called design #35 G-CSFRE
T9 chain: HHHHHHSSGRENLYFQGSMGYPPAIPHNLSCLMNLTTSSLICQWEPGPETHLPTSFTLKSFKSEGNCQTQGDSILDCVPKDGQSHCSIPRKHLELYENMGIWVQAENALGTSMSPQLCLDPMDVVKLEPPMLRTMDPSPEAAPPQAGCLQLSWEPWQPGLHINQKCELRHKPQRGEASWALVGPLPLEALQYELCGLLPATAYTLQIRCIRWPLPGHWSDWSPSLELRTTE
Description: as §4

Binder | binding result [1] | KD fold change (against WT:WT) [2] | KD fold change (against WT:WT) [3] | binding result [4] | binding result [5] | binding result [6] | binding result [7] | binding result [8] | binding result [9]
design 300 G-CSFE, tag cleaved (ligand, also called design 300 G-CSFE mutant) TPLGPASSLPQSFLLKCLEQVRKIQGDGAALQEKLCATYDDCHPEELVLLGHSLGIPWAPLSSCPSQALQLAGCLSQLHSGLFLYQGLLQALEGISPELGPTLDTLQKDVARFATTIWQQMEELGMAPALQPTQGAMPAFASAFQRRAGGVLVASHLQSFLEVSYRVLRHLAQAAAENLYFQ | no binding | 194 fold |  |  |  |  |  |  | 
design 303 G-CSFE, tag cleaved (ligand, also called design 303 G-CSFE mutant) TPLGPASSLPQSFLLKCLEQVRKIQGDGAALQEKLCATYKLCHPEELVLLGHSLGIPWAPLSSCPSQALQLAGCLSQLHSGLFLYQGLLQALEGISPELGPTLDTLQKDVARFATTIWQQMEELGMAPALQPTQGAMPAFASAFQREAGGVLVASHLQSFLEVSYRVLRHLAQAAAENLYFQ | no binding |  | 2.2 fold |  |  |  |  |  | 
WT G-CSF with C-terminal Twin Strep tag (ligand, construct of the insect-cell co-expression pulldown; also called G-CSFWT) not shown |  |  |  | no binding | no binding | no binding | no binding | no binding | no binding
